Source: publication doi:10.1101/797449

Molecular target: dsRBD1 of human TAR RNA Binding Protein (TRBP2) (human)
Assay: SEC-MALS

population of tetramer relative to monomer: 0.25
stoichiometry N: 4
Substance: dsRBD1 of human TAR RNA Binding Protein (TRBP2) (domain or fragment)
